Values belong to the binder of their own block, whether it stands above or below them. Square brackets hold non-standard residues; d marks the D form. Ends that are not written are not given here. Ahx = NCCCCCC(=O)O
Columns and labels:
[1] = biological target: T1, native IL-5R a/β complex on TF-1 cells (human, UniProt Q01344 21-420; P32927 17-897); assay: cell-based or functional assay
T1 sequence (looked up) 1: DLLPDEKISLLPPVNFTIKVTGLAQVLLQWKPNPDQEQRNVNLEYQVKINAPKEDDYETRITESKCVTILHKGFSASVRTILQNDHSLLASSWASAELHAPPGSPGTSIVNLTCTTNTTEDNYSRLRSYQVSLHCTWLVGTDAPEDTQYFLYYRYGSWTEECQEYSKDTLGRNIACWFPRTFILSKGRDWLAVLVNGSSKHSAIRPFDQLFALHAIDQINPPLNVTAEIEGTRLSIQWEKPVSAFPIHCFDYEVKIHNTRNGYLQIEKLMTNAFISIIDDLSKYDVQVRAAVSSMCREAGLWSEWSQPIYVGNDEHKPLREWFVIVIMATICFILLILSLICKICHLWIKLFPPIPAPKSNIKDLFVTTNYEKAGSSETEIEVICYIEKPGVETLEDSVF
T1 sequence (looked up) 2: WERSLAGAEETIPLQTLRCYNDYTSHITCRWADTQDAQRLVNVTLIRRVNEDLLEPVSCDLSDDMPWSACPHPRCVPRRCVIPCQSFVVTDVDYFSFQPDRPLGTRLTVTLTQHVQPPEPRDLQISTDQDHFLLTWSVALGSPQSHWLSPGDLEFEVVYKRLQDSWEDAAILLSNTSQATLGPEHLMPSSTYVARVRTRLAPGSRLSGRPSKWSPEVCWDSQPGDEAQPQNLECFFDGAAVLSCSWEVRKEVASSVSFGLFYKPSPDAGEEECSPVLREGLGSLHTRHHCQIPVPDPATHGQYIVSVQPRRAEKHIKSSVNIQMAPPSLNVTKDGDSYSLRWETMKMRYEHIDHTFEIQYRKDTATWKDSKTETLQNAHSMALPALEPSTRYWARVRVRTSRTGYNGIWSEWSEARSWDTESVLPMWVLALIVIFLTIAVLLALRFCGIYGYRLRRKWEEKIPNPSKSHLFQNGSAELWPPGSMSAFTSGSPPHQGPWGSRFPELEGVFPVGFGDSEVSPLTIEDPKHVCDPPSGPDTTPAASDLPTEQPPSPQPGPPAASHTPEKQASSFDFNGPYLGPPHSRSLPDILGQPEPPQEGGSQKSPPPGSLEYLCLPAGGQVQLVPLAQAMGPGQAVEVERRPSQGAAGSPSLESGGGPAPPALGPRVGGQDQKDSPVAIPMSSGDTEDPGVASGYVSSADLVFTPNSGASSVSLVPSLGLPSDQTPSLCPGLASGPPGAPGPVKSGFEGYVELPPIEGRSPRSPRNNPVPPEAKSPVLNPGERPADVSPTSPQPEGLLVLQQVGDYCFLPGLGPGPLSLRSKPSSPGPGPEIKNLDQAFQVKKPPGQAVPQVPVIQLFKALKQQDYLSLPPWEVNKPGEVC

[2] = biological target: T2, IL-5RaECD (the extracellular domain (ECD) of the human IL-5 receptor a chain) (human, UniProt Q01344 21-342, extensively glycosylated); assay: scintillation proximity competition assay, 20 pM [125I] IL-5, soluble IL-5Ra on beads; dimer of the printed monomer
T2 construct: extracellular domain; also called IL-5RαECD; soluble IL-5Ra
T2 sequence (Q01344 21-342, looked up): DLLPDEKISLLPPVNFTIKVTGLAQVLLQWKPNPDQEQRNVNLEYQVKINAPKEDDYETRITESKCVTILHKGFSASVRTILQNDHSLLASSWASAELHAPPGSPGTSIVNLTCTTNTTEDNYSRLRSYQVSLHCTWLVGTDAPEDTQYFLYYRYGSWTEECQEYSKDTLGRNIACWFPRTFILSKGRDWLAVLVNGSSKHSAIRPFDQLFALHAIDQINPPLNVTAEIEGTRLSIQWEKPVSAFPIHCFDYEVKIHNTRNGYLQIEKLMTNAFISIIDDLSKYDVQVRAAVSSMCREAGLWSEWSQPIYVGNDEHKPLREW
Experimental: Binding affinities of synthetic peptides for IL-5Ra were measured in a scintillation proximity assay (SPA) using radio-iodinated IL-5. Streptavidin coated SPA beads (Amersham) were suspended in IL-5 binding buffer (phosphate buffered saline, 0.1% bovine serum albumin, 0.2% NaN3) at 2 mg beads/ml of buffer. Biotinylated mAb 179 was adsorbed onto the beads at a ratio of 2 ig Ab/mg beads by incubating the beads and antibody with agitation for at least 2 h. at 4. The beads were pelleted at 2500 rpm and resuspended at 2 mg/ml in binding buffer. Soluble IL-5Ra was then adsorbed onto the beads by diluting a solution of soluble receptor harvest 1:500 into the bead suspension and incubating with agitation for 2 hr at 4. The beads were again pelleted at 2500 rpm and resuspended at 2 mg/ml in binding buffer. Competition binding assays were carried out in 100p1 reactions in white polystyrene microtiter plates. These reactions contained 0.05 mg of receptor coated SPA beads, various concentrations of test peptide diluted in binding buffer, and 20 pM [₁₂₅I] IL-5 (Amersham). The plates were incubated at room temperature for 1 hour with agitation, then centrifuged for 5 min at 1500 rpm followed by scintillation counting on a Topcount instrument (Packard). Total binding was defined by the amount of [₁₂₅I] IL-5 bound in the absence of any competitor. Non-specific binding was defined by the amount of [₁₂₅I] IL-5 bound in the presence of 30 nM IL-5. Peptide binding data was analyzed to determine the peptide concentration required to reduce specific [₁₂₅I] IL-5 binding by 50% (IC₅₀). In each instance, the dimer has both intramolecular and intermolecular disulfide linkages as shown generically below: […]

Microphysiometer pIC50 (block of TF-1 cell response to IL-5) [1]: 9 negative log of the molar IC50
B1: dimer of (Ahx)-EGYVCVEWARCPTCR-(NH2) (peptide)
peptide: [Ahx]EGYVCVEWARCPTCR-NH2
modifications: disulfide (positions not given here); also: dimer, intramolecular and intermolecular disulfides, places not given here

SPA pIC50 [2]: 6.8 negative log of the molar IC50
B2: dimer of (H)-EGYVCVEFARCPTCR-(OH) (peptide)
peptide: H-EGYVCVEFARCPTCR-OH
modifications: disulfide (positions not given here); also: dimer, intramolecular and intermolecular disulfides, places not given here

Microphysiometer pIC50 (block of TF-1 cell response to IL-5) [1]: 9.6 negative log of the molar IC50
SPA pIC50 [2]: 8.4 negative log of the molar IC50
B3: dimer of (H)-EGYVCVEWARCPTCR-(OH) (peptide)
peptide: H-EGYVCVEWARCPTCR-OH
modifications: disulfide (positions not given here); also: dimer, intramolecular and intermolecular disulfide linkages, places not given here

Microphysiometer pIC50 (block of TF-1 cell response to IL-5) [1]: 9.1 negative log of the molar IC50
B4: dimer of (H)-EGYVCVEWARCPTCG-(NH2) (peptide)
peptide: H-EGYVCVEWARCPTCG-NH2
modifications: disulfide (positions not given here); also: dimer, intramolecular and intermolecular disulfide linkages, places not given here

SPA pIC50 [2]: 6.6 negative log of the molar IC50
B5: dimer of (H)-EGYVCVEFARCPTCG-(NH2) (peptide)
peptide: H-EGYVCVEFARCPTCG-NH2
modifications: disulfide (positions not given here); also: dimer, intramolecular and intermolecular disulfides, places not given here

SPA pIC50 [2]: 6.4 negative log of the molar IC50
B6: dimer of (H)-EGYVCVEFARCPTCR-(NH2) (peptide)
peptide: H-EGYVCVEFARCPTCR-NH2
modifications: disulfide (positions not given here); also: dimer, intramolecular and intermolecular disulfides, places not given here

Microphysiometer pIC50 (block of TF-1 cell response to IL-5) [1]: 9.2 negative log of the molar IC50
SPA pIC50 [2]: 8.7 negative log of the molar IC50
B7: dimer of (H)-EGYVCVEWARCPTCK-(OH) (peptide)
peptide: H-EGYVCVEWARCPTCK-OH
modifications: disulfide (positions not given here); also: dimer, intramolecular and intermolecular disulfide linkages, places not given here

Microphysiometer pIC50 (block of TF-1 cell response to IL-5) [1]: 9.1 negative log of the molar IC50
B8: dimer of (Ac)-EGYVCVEWARCPTCR-(NH2) (peptide)
peptide: Ac-EGYVCVEWARCPTCR-NH2
modifications: disulfide (positions not given here); also: dimer, intramolecular and intermolecular disulfides, places not given here

Microphysiometer pIC50 (block of TF-1 cell response to IL-5) [1]: 8.4 negative log of the molar IC50
B9: dimer of (Ac)-EGYVCVEWARCPTCK-(NH2) (peptide)
peptide: Ac-EGYVCVEWARCPTCK-NH2
modifications: disulfide (positions not given here); also: dimer, intramolecular and intermolecular disulfides, places not given here

SPA pIC50 [2]: 6.1 negative log of the molar IC50
B10: dimer of (H)-GYVCVEFARCPTCG-(NH2) (peptide)
peptide: H-GYVCVEFARCPTCG-NH2
modifications: disulfide (positions not given here); also: dimer, intramolecular and intermolecular disulfide linkages, places not given here

Microphysiometer pIC50 (block of TF-1 cell response to IL-5) [1]: 6.9 negative log of the molar IC50
B11: dimer of (Ac)-EGYVCVEWAACPTCR-(NH2) (peptide)
peptide: Ac-EGYVCVEWAACPTCR-NH2
modifications: disulfide (positions not given here); also: dimer, intramolecular and intermolecular disulfides, places not given here

— patent publication US20070173444A1 (AFFYMAX, published 2007)
